Assay results reported in the DeepSol protein solubility set.

assay: soluble on expression in E. coli; label from the status in PepcDB or PDB records

Soluble on expression in E. coli, not soluble:
MGSDKIHHHHHHMINQDIARIFTEIAYLLEAAGEQKSQFEANAYLKASRAISSMQEDLETIYEKGGKDALLSIPGIGKGIADKIVEYINSGSIQKYEDLKKKYPIDFISLMKIEGLGPKKLAVLYQALGITNVEELRNAILNHKVRGIPGFGEKSENQLLKNIEMAERVSERIPIWKAYPEALRIKNYLESTGYALIVEIAGSTRRMKETIGDIDILAASEYPNALMDKFVEMDGVSSIIAKGDKKSTVSLKIGTTCDLRIVSKESFGAAMQYFTGSKDHNIKLRRLAIGKGMKLNEYGLFSGDKNIVSGMPEEKVYETLDLAYIPPELREDRGEIEAAAQKRLPEIVQYGEVKGDMFSKMDVSNIKNITGISYVFVDSGDGPLTDLYMYTFDGGRAVKTGASIKALDCSKLNAVSELKSASGVIMLYNIDSLGLPESAAVQNLIEKLSKSGIIVLINSSDVRPTSDFLYSLRKYDFKVAIGSFSDEPSLEGSMRFGIGITRRAWIEKNRIINTLDANALMSYLKNSQ
MGSDKIHHHHHHMIRGLYIAVSAMITNQQKQNVVVNNLANMDTNGYKSKQLLTKSFDELKLEGYNNYANGTKQKQIIGDISPGISMDETITNFNQGPIKTTDNKMDVAIQGKGFFLVSDAAGNQFYTRNGNFRTDNQGDLITSEGYYVLGTNTATGAVGHINVGNQKFEVAKDNTISLDGNAMYKFNIVDFNNYNNLKKEGDNLYSGGGAMKVNNALTIQSAIESSNVDMVSEINNMMTISREYEANQKIIQAMDSKLAKIASEIGSVR
MGSDKIHHHHHHMIRINMFSQADSVAGQGVGAAYLELIRLLRTHLVDDFYVTINKYGRSDLTHYHTINPTYFANSFSPARGRKIGYVHFLPDTLERSIKLPGVAKKVFYQYVIDFYKRMDQIVVVNPIFIDKLTEYGLDRNKIRYIPNFVAKSEFYEQTQAKKNATRQELGIPQDKFVVFGDGQVQARKGVDDFAKLAEANPDYQFIWAGGFSFGKITDGYDHFKQLVENPPKNLTFTGIIDREKLVDYLNMADLFLLPSFDELFPMSVLEAFSCGTPVLLRDLDLYRAIIDGYYLAGKDSAEMNEQLRFAATHPEVLARQQELSRKASQQYSEDHLAEIWRDFYQEQYQLGRELGQISYE
MGSDKIHHHHHHMIRLLFASLLAASPIHAQGFAGLGTVADGFAVPAPNPTFSFPDDHGPHPDYRIEWWYLTATLTGADGIDYGIQWTLFRSALAPTTSTDWTAPQIFMGHAGLTTPDAHFSAERLARGGIGQAGVTPVPFRAFIDDWEMTSTTAEGDAYDALSLTARGVDFAYDLALQANGPLIFHGQNGFSVKSAEGQASYYYSQPFYTVTGTLTLPTGAVEVSGNAWLDREWSSQPLSDDQSGWDWFSLQLPDGARLMAFALRDTSDQPFTSATYIAPDGTTQAYGDGAITLTPLVTTDVGGRDVPTEWRLQFPDRGIDITTQPLNPQSWMDTSFPYWEGPITFTGTHDGRGYLEMTGYE
MGSDKIHHHHHHMISTANLTIQFGPKPLFENVSVKFGEGNRYGLIGANGSGKSTFMKIIGGDLEPSAGNVSLEPGVRLGKLRQDQFAFEEVRVLDVVMMGHTEMWAAMSERDAIYANPEATEDDYMRAADLEAKFAEYDGYTAEARAGELLLGLEIAVDQHNLLMREIAPGWKLRVLLAQALFSNPDVLLLDEPTNNLDINTIRWLENVLNGYQSTMIIISHDRHFLNQVCTHMADVDYGEIRVYPGNYDDYMLASTQARERLTANNAKAKERIVELQDFVRRFAANKSKSRQATSRLKQIDRIKADQVEVKPSSRQNPYIRFEQNKVMHRLAVTIEKLSKSYDQPVIRDFSAMVDAGEKVAIIGANGVGKTTLLRMLATDLAPDSGTVKWSENADIGYMAQDVSDQFQQGDINLFDWMAEHRQPGDDDQSIRSALGRLLFSGDDLPKAPKVLSGGEKNRMTFGRLMLGRHNVMLLDEPTNHLDMESIESLQFALEKYEGALIFVSHDREFVSGLATRIIEILPDGELVDYRGGYEDYLASRGIEA
MGSDKIHHHHHHMITEELEVGYNVPATVGMDEADIQTPCLILDLDALERNVKKMGDYAKAHNMRHRSHGKMHKSVDVQNLQEELGGAIGVCCQKVSEAEVFVRGGIKDVLVSNQVRNPAKIERLANLPKLGSTITVCVDDIDNVAELSAAATKAGTELNCYIEIDCGAGRCGVTTTEAVVEIAKAIDAAENLKFTGIQAYQGAMQHMDSFSDRKAKTQIAIDQVQEAIDALTEIGLKPEFVSGGGTGSYYFESNSGVFNELQCGSYAFMDADYGRILDEDGNRIDAGEWENALFILTSVMSHAKADKAIVDAGLKAQSVDSGLPFVYGRDDVEYVKCSDEHGVVSDPNGVLEINEKLKLVPGHCDPTCNVHDFYIGVRNGKVETVWPVSARGKMY
MGSDKIHHHHHHMIVKEINPHFEDYVFNWEQTYQFLVGGYGSSKSYHTALKIVLKLLKEKRTALVIREVFDTHRDSTFALFQEVIEELGLTKAVASLSSPLQLRFHNGSRIMFKGMDNPAKLKSVHNISLIWIEECSEVKYEGFKELIGRLRHPELKLHMICTTNPVGTSNWTYRHFFRDERKKRFVLDDSELYEKRTIVKGDTYYHHSTANDNLFLPESYVKQLDGLKEYDPDLYRIARKGRFGVNGIRVLPQFEVLPHDQVKKCIAAISKPIFRTGMDFGFEESYNAVVRLAVDPEKKYLYIYWEYYQNKMTDDRTAEELREFIETQELIKADSAEPKSIQYFRQQGFRMVGARKFPGSRLQYTKKVKRFKKIFCSDRCENVIYELETLTYAKDKNGALIEDEFTIDPHTLSAIWYALDDYEVADMKETAHKRMRPNRERRRS
MGSDKIHHHHHHMIYIGLPQWSHPKWVRLGITSLEEYARHFNCVEGNTTLYALPKPEIVARWYEQTHDDFRFCFKFPATISHQAALRHCDELSSEFFARLAPLASRIGQYWLQLPATFGPRDLPALWHFLDGLPKDFTYGVEVRHPEFFAKEEAEQQLNRGLHERNVNRVILDSRPVHSAAATSPAMIDAQQKKPKVPVHAVMTARQPMVRFIGGDDMAHNRELFRVWLQTLAKWHQSGTPWLFLHTPDIAFAPALVDTLWGDLRAALPAAGNAPSIPQQSSLF
MGSDKIHHHHHHMKADFDVLIIGAGLSGIGMACHLAEACPDKRVGILERRSAIGGTWDLFRYPGIRSDSDMFSFGYKFRPWHELKVLADGPAIRRYIADTAREYGVDKSIRFGLKVLRASWSSEDRSWTVTVQQEDSHETHSLTCKFLISCTGYYNYDHGYRPDFTGLERFQGICVHPQHWPQDLDYHGKRVIVIGSGATAVTLVPSMAGKASHVTMLQRSPSYVFSVPAYDKISAVLQKMLPASWVFGLARWRNIRLQRFIYRAARRWPQRVRAWLLSHVEQQLGHGADLRHFSPEYNPWDQRLCAVPDGDLFKAIREGKASVVTDQIDTFTETGVRLKSGRRLDADIIVTATGLQLQSLGGMEVQVDGQPRHASSLMTYKSVLMQDVPNMAHLFGYTNAPWTLKVDLAASYICRLLDHMDRHEYEVVTPGAPAGEMLDETVMDSLQSGYVQRGRNVLPRQGRKLPWRVVHNFEADRDMLTRHPVSDPALAFVRAATTARTGKASELVATRMDGTAV
MGSDKIHHHHHHMKALALFSGGLDSMLAMKLITAQGIEVKALNINIGFGSTSDKSEIMKKRAAMVGADFEMIDVRNSYLQEVLFNPQYGYGKHFNPCIDCHAFMFKTALAMLKEENASFIITGEVLGQRPMSQRSDAMAKVKKLALDEEDLILRPMCAKNLPLTKPEREGWVDREKLEGIIGRSRKRQLELAAKFGLEDFESPGGGCLLTLDSFAKKIRDFIEFDKDMQVNDAQLLKYGRHLRLPNGAKMIIGRNELENTLLKGLKTPKYEAIEIGDLIGAYSLVDEKISEKDLELALKIALTYTKHEVGKSYELKFKNQAYTSIAFENKADINQFFIS
MGSDKIHHHHHHMKALIEVHNLWKEYNGKEKVTALKGINLRINTGEFVVILGPSGSGKTTLLNCLSGVDRPTRGTVIIHGTDLYTLSEEERTRFRAENMGFVFQFFNLVPVLTAIENVELPLLILGVNRKEARERAFEILRKVGLAHKCDRFPEELSGGEKQRVAIARAIVHNPKVIWADEPTGALDNETGRMIIDLLMEMKENSTLVVVTHDERIAEKADRVIRIRDGQIEQDICEKAL
MGSDKIHHHHHHMKDILVHIDDSERCSARLDIAIGLAKTFGARLTGLFARTESHRPSAVAHKASDQLTQARDAAKEAFTKACASAGITSRWWQLAHGEPGHVVSETMFCARYADLVVMGQTEPKSKIVPEEMVEHVILHCGRPVLVVPHTGSFPSVGERMALAWNAGKEAVRALNDAKPLMLKAKSVTVLSLRGPADDGSNAMGEVPQVDVLDHLAACGITASAERLAGEHIGKMDMLLSRLCDLGADLVVMGAHGHYGLSLKRGTGTRYVLAHMTVPVLMSN
MGSDKIHHHHHHMKFDYEKEPSRDILCIDCKSFYASVECAERGLDPLKTMLVVMSNAENAGGLVLSASPMAKKVLGVSNVTRKNQVPAHPDLYVVPPRMNLYMKKNQEINNLYKKFVADEDHSVFSVDESFLDVTASLSYFHCETAYKMARIIQRVVYNHVGIYVTVGIGDNPLLAKLALDNGAKHSPDFIAEWRYDRVPDTVWQLPSLTDFCGIGRRMAKRLNRLGIDSVYELAQANPHLLQETFGMMGLQLYAHSWGIDRTFLGKKAPHKAEKSFGNSQILPRDYARRDQIELVLKELTEQVAARLRKAHCQTECITVYVGYSKGQIDREGRTGWRKQQTIPATNNTKVLITYVLALFREHYLAGTDVRQLGLSYGKLVWNESLQLDLFSEPEEQISEMELNYLIDKIRQKFGFQALIHTSSLLEGATAIHRSGLVGGHAGGNVGLGG
MGSDKIHHHHHHMKFFNREKEIEEILHIIESEPQRINFIFGSINSGKTALINEIINNRLNKDKYVVFYFDLREIFISKYDDFIEVLFEEYEEPFIDKVKRLFLSLIKDYPDVIKSYALLNITGVVDSIPIPKNTLNELLKKRNVKNVFRYITSVLIKIKREGKQPIIIIDELQKIGDLKLNGFLIYELFNYFVSLTKHKHLCHVFCLSSDSLFIERVYNEAMLEGRCKYILVDDFDRETALKFMDFLAKENNINLTNEDKELIYNYVGGKPIDIIYVINEMKYKKLEDILTSMLKEETQKLKYFLENVKEEDEELYKKVVDALKIFKDSYEIEDIKIPKKLREFLVKKNILFLNPIEGTLKPQSFLVWNAIKRIL
MGSDKIHHHHHHMKFPRIGLPKEKVIELINEKTKKDLTFSSGKILGSMCTMPHDLAIEVYTKYIDRNLGDPGLHPGTRKIEEEVIEMISDLLHLEKGHGHIVSGGTEANILAVRAFRNLSDVEKPELILPKSAHFSFIKAGEMLGVKLVWAELNPDYTVDVRDVEAKISDNTIGIVGIAGTTGLGVVDDIPALSDLARDYGIPLHVDAAFGGFVIPFAKELGYELPDFDFKLKGVQSITIDPHKMGMAPIPAGGIVFRRKKYLKAISVLAPYLAGGKVWQATITGTRPGASVIAVWALIKHLGFEGYMRIVERAMKLSRWFAEEIKKINNAWLVREPMLNIVSFQTKNLKKVERELKSRGWGISAHRGYIRIVFMPHVTREMIEEFLKDLKEVLS
MGSDKIHHHHHHMKGAVTTDVEAGGLRGRMYASRATSDVRPRADAPTFVLIHGIGVSHRYLVRLHHVLAGVADTISIDLPGFGSTPRPDRQLMVADQAAFIHDVLDQAGVGLRVLVGHSMGAQFVLEAALQRPEQVPHVVLMGPVVDVRRRTLPRQILALTKDALLHETPGSNALVFSDYLRCGPLWYLKELRVMMNYRTEERIRGLTTPVMILRGASDPIATGEWCRILARRAPAGTLVEVPGCGHVVQHTGTAQVADAITGFTGLPGSGAPEQTVNRQ
